Measurements: article PMC5561080, “The Gαi-GIV binding interface is a druggable protein-protein interaction” (Scientific Reports, 2017)
Where two headings read alike, the source gives them in different places. No end group written: not given here. 5,6‑carboxyfluorescein = 5,6-carboxyfluorescein

B1: human His-GIV-CT (1660–1870) (domain or fragment, UniProt Q3V6T2-3 1660-1870, looked up)
chain: SETLESRHHKIKTGSPGSEVVTLQQFLEESNKLTSVQIKSSSQENLLDEVMKSLSVSSDFLGKDKPVSCGLARSVSGKTPGDFYDRRTTKPEFLRPGPRKTEDTYFISSAGKPTPGTQGKIKLVKESSLSRQSKDSNPYATLPRASSVISTAEGTTRRTSIHDFLTKDSRLPISVDSPPAAADSNTTAASNVDKVQESRNSKSRSREQQSS
notes: also called His-tagged GIV 1660–1870; source: E. coli BL21(DE3), purified (HisPur Cobalt resin, dialysed against PBS)

Legend:
rat His-Gαi3 [1] = target: T1, rat His-Gαi3 (Rattus norvegicus, UniProt P08753); assay: fluorescence polarization competition; format: binding
T1 construct: gene Gnai3

rat GST-Gαi3 [2] = target: T2, rat GST-Gαi3 (Rattus norvegicus, UniProt P08753); assay: AlphaScreen protein-protein binding inhibition; details: displacement of His-GIV-CT 1660-1870 (75 nM each protein); GDP 30 µM, 5 mM MgCl2, pH 7.4, room temperature
T2 construct: gene Gnai3
T2 sequence (Q3V6T2 1660-1870 partner, one chain of several): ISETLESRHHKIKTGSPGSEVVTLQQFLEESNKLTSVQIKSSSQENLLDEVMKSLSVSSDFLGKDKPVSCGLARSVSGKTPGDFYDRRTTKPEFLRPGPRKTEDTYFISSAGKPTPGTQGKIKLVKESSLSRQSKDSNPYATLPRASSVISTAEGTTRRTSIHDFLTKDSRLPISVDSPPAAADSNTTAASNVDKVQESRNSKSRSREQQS

rat GST-Gαi3 [3] = target: T2, rat GST-Gαi3; assay: AlphaScreen protein-protein binding inhibition; details: displacement of His-GIV-CT 1660-1870 (75 nM each protein); GDP 30 µM, 5 mM MgCl2, pH 7.4, room temperature; remark: listed apart in the source
human Gαi3 = target: T3, human Gαi3 (Homo sapiens, UniProt P08754); assay: 1H-15N TROSY NMR titration, chemical shift perturbation; format: binding; details: GDP-bound, pH 7.0, 30 °C, 10 mM MgCl2; site SwII/α3/W258 region
T3 construct: gene GNAI3
T3 sequence (P08754 whole entry): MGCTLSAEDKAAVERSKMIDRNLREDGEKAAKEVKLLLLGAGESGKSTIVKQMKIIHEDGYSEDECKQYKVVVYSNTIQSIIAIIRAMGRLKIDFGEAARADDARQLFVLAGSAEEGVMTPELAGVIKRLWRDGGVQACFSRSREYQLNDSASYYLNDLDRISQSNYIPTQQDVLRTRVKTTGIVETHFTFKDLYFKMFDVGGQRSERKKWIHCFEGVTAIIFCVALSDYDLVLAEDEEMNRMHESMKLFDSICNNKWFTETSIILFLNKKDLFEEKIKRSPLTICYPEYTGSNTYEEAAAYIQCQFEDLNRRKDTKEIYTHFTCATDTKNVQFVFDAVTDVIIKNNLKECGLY

rat His-Gαi3 [4] = target: T4, rat His-Gαi3 (rat, UniProt P08753 1-354); assay: fluorescence polarisation; competition: His-Gαi3 1 µM with fluorescently-labeled GIV 1671–1701 25 nM and increasing unlabeled GIV peptide or His-GIV-CT (0.5–20 µM); buffer with 30 µM GDP; details: both partners purified
T4 construct: GDP-loaded in the buffers; Pull-down and FP methods name the rat protein; also called purified His-Gαi3; source: E. coli BL21(DE3), purified (HisPur Cobalt resin, buffer exchange on HiTrap Desalting)

rat GST-Gαi3 [5] = target: T5, rat GST-Gαi3 (rat, UniProt P08753 1-354); assay: AlphaScreen or HTRF; His-GIV-CT on nickel-chelate donor beads, GST-Gαi3 on glutathione acceptor beads; 25–100 nM each (75 nM chosen), 10 and 5 µg/ml beads; 50 mM Tris-HCl pH 7.4, 100 mM NaCl, 0.4% NP-40, 5 mM MgCl2, 2 mM DTT, 30 µM GDP; room temperature, 2.5 h; details: both partners purified
T5 construct: source: E. coli BL21(DE3), purified (Glutathione Agarose, buffer exchange on HiTrap Desalting)

rat His-Gαi3 [6] = target: T4, rat His-Gαi3; assay: fluorescence polarisation; fluorescently-labeled GIV peptide 25 nM, rat His-Gαi3 titrated 0.125–10 µM, room temperature; 50 mM Tris-HCl pH 7.4, 100 mM NaCl, 0.4% NP-40, 10 mM MgCl2, 5 mM EDTA, 2 mM DTT, 30 µM GDP; one-site binding model; details: both partners purified
rat His-Gαi3 [7] = target: T6, rat His-Gαi3 (rat, UniProt P08753 1-354); assay: FP
T6 chain: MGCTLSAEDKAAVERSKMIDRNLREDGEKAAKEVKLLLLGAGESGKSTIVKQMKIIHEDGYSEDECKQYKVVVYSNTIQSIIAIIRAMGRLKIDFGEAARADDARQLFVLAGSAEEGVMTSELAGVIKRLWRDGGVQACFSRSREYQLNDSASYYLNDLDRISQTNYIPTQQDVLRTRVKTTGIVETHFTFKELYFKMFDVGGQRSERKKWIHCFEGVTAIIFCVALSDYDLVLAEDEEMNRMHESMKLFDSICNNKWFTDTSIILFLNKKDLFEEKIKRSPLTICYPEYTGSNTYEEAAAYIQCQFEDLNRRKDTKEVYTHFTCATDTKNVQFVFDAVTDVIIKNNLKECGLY

rat His-Gαi3 [8] = target: T4, rat His-Gαi3; assay: pull-down; 10 µg GST or GST-GIV (~1.25 µM) immobilised on glutathione agarose beads; rat His-Gαi3 0.1–5 µM, 4 h at 4 °C; 50 mM Tris-HCl pH 7.4, 100 mM NaCl, 0.4% NP-40, 10 mM MgCl2, 5 mM EDTA, 2 mM DTT, 30 µM GDP; SDS-PAGE, Coomassie blue; details: both partners purified
[9] = target: B1; assay: AlphaScreen or HTRF; competition: 75 nM His-GIV-CT and 75 nM GST-Gαi3 on beads with increasing untagged Gαi3 in solution; buffer with 30 µM GDP; one-site sigmoidal inhibition curve; details: both partners purified

Cc1ccc(C(=O)Nc2ccc(S(=O)(=O)O)c3cc(S(=O)(=O)O)cc(S(=O)(=O)O)c23)cc1NC(=O)c1cccc(NC(=O)Nc2cccc(C(=O)Nc3cc(C(=O)Nc4ccc(S(=O)(=O)O)c5cc(S(=O)(=O)O)cc(S(=O)(=O)O)c45)ccc3C)c2)c1 [suramin]
IC50 (rat His-Gαi3 [1]; read-out: IC50): ~50000 nM | AlphaScreen protein-protein binding inhibition (rat GST-Gαi3 [2]): suramin is a less potent inhibitor than NF023 in the same AlphaScreen

O=C(Nc1cccc(C(=O)Nc2ccc(S(=O)(=O)O)c3cc(S(=O)(=O)O)cc(S(=O)(=O)O)c23)c1)Nc1cccc(C(=O)Nc2ccc(S(=O)(=O)O)c3cc(S(=O)(=O)O)cc(S(=O)(=O)O)c23)c1 [NF023]
% inhibition at 10 μM (rat GST-Gαi3 [3]): ATA and NF023 efficiently inhibited Gαi3-GIV binding as determined by AlphaScreen | 1H-15N TROSY NMR titration, chemical shift perturbation (human Gαi3): revealed significant Chemical Shift Perturbations (CSP) in only a fraction | IC50 (rat His-Gαi3 [1]; read-out: IC50): ~5000 nM

O=C(O)C1=CC(=C(c2ccc(O)c(C(=O)O)c2)c2ccc(O)c(C(=O)O)c2)C=CC1=O [ATA]
% inhibition at 10 μM (rat GST-Gαi3 [3]): ATA and NF023 efficiently inhibited Gαi3-GIV binding as determined by AlphaScreen | IC50 (rat His-Gαi3 [1]; read-out: IC50): ~5000 nM

O=C(Nc1cc(C(=O)Nc2ccc(S(=O)(=O)O)cc2S(=O)(=O)O)cc(C(=O)Nc2ccc(S(=O)(=O)O)cc2S(=O)(=O)O)c1)Nc1cc(C(=O)Nc2ccc(S(=O)(=O)O)cc2S(=O)(=O)O)cc(C(=O)Nc2ccc(S(=O)(=O)O)cc2S(=O)(=O)O)c1 [NF449]
IC50 (rat His-Gαi3 [1]; displacement of fluorescein-GIV 1671-1701 peptide (25 nM), GDP 30 µM, 10 mM MgCl2, pH 7.4, room temperature): NF449 inhibits Gαi3-GIV binding with a potency similar to that of NF023

B1
binding result (rat His-Gαi3 [4]): binds | binding result (rat GST-Gαi3 [5]): binds

B2: fluorescein-labeled GIV 1671–1696 peptide (peptide)
peptide: {5,6‑carboxyfluorescein}-KTGSPGSEVVTLQQFLEESNKLTSVQ-NH2
notes: Made on MBHA resin, which would leave a C-terminal amide; source: synthetic peptide (Boc-SPPS, RP-HPLC purified)
Kd (rat His-Gαi3 [6]): ~650 nM

B3: fluorescein-labeled GIV 1671–1705 peptide (peptide)
peptide: {5,6‑carboxyfluorescein}-KTGSPGSEVVTLQQFLEESNKLTSVQIKSSSQENL
notes: Made on MBHA resin, which would leave a C-terminal amide; also called fluorescently-labeled GIV peptide; source: synthetic peptide (Boc-SPPS, RP-HPLC purified)
Kd (rat His-Gαi3 [7]): 560 nM | Kd (rat His-Gαi3 [6]): ~500 nM

B4: GST-GIV 1671–1696 (domain or fragment, human)
chain: KTGSPGSEVVTLQQFLEESNKLTSVQ
notes: source: purified
binding result (rat His-Gαi3 [8]): binds

B5: fluorescein-labeled GIV 1671–1689 peptide (peptide)
peptide: {5,6‑carboxyfluorescein}-KTGSPGSEVVTLQQFLEES-NH2
notes: as for B2
Kd (rat His-Gαi3 [6]): ~1000 nM

B6: unlabeled GIV 1671–1701 peptide (peptide)
peptide: KTGSPGSEVVTLQQFLEESNKLTSVQIKSSS
notes: as for B2
binding result (rat His-Gαi3 [4]): binds

B7: GST-fused GIV 1671–1701 (domain or fragment, human)
chain: KTGSPGSEVVTLQQFLEESNKLTSVQIKSSS
notes: source: purified
binding result (rat His-Gαi3 [8]): binds

B8: fluorescently-labeled GIV 1671–1701 peptide (peptide)
peptide: {5,6‑carboxyfluorescein}-KTGSPGSEVVTLQQFLEESNKLTSVQIKSSS
notes: as for B2
Kd (rat His-Gαi3 [7]): 460 nM | binding result (rat His-Gαi3 [4]): binds

B9: GST-GIV 1671–1755 (domain or fragment, human, UniProt Q3V6T2-3 1671-1755, looked up)
chain: KTGSPGSEVVTLQQFLEESNKLTSVQIKSSSQENLLDEVMKSLSVSSDFLGKDKPVSCGLARSVSGKTPGDFYDRRTTKPEFLRP
notes: source: E. coli BL21(DE3), purified (Glutathione Agarose)
binding result (rat His-Gαi3 [8]): binds

B10: GST-GIV 1671–1689 (domain or fragment, human)
chain: KTGSPGSEVVTLQQFLEES
notes: source: purified
binding result (rat His-Gαi3 [8]): binds

B11: GST-GIV 1671–1705 (domain or fragment, human)
chain: KTGSPGSEVVTLQQFLEESNKLTSVQIKSSSQENL
notes: limits not spelled out in the text for this one; also called GST-fused GIV truncation construct of 35 amino acids; source: purified
binding result (rat His-Gαi3 [8]): binds

B12: untagged rat Gαi3 (natural protein, UniProt P08753 1-354, looked up)
chain: MGCTLSAEDKAAVERSKMIDRNLREDGEKAAKEVKLLLLGAGESGKSTIVKQMKIIHEDGYSEDECKQYKVVVYSNTIQSIIAIIRAMGRLKIDFGEAARADDARQLFVLAGSAEEGVMTSELAGVIKRLWRDGGVQACFSRSREYQLNDSASYYLNDLDRISQTNYIPTQQDVLRTRVKTTGIVETHFTFKELYFKMFDVGGQRSERKKWIHCFEGVTAIIFCVALSDYDLVLAEDEEMNRMHESMKLFDSICNNKWFTDTSIILFLNKKDLFEEKIKRSPLTICYPEYTGSNTYEEAAAYIQCQFEDLNRRKDTKEVYTHFTCATDTKNVQFVFDAVTDVIIKNNLKECGLY
notes: from a pET28b plasmid containing a thrombin cleavage site; also called untagged Gαi3; unlabeled Gαi3; source: E. coli BL21(DE3); rat His-Gαi3 cleaved with agarose-immobilized thrombin, passed over HisPur Cobalt beads, gel filtration (Superdex S200)
IC50 [9]: ~1000 nM
